Laboratory results taken from FireProtDB (doi:10.1006/jmbi.2001.4728).

Settings: Pseudomonas aeruginosa (strain ATCC 15692 / DSM 22644 / CIP 104116 / JCM 14847 / LMG 12228 / 1C / PRS 101 / PAO1); pH 7; 10 °C; Urea; Fluorescence; sodium phosphate 50 mM; reversible: yes; whole UniProt chain shown

B1: Cytochrome c-551 wild type, P00099 (protein)
chain: MKPYALLSLLATGTLLAQGAWAEDPEVLFKNKGCVACHAIDTKMVGPAYKDVAAKFAGQAGAEAELAQRIKNGSQGVWGPIPMPPNAVSDDEAQTLAKWVLSQK
Which results are given for B1?
denaturant m value: 1.1 kcal/mol/M; denaturant midpoint (higher = more stable): 6.4 M; unfolding free energy: 7.1 kcal/mol
